To fix the notation:
B1: LINE1-full (parent)
chain: UACGUAGGUGGUUUUCCCCUGAUAGUGCUAAGGGGGCCUGGAAGUUUGGACUGGGCAGAGCUCAACACAGCGUGGCAAAGUGGCUGUGGCUAGACUGCCUCUCUGGAUUCCUCGUCACUCAGCAGGGCAUCUCUGAGAGAAAUGCC

The variants in the series derive from B1. The series can be described thus: self-cleavage, relative activity (ratio to wild type); higher = more cleavage; in vitro, sequencing; the parent is a self-cleaving ribozyme.
For the variant C110A U119C, the self-cleavage came to 1.51.
As to A117U G122U, the self-cleavage came out at 1.72.
The value for G114C A138G was 1.41.
Consider U112C A136U, for which the self-cleavage turned out to be 1.84.
The value for U112C A136G was 1.51.
As for C111A A141G, the self-cleavage came out at 1.03.
Turning to C111A A141U, the self-cleavage stood at 1.14.
For the variant U119C C128U, the self-cleavage was found to be 1.13.
The value for U112C U115C was 1.29.
As for A117G G126A, the self-cleavage was found to be 1.96.
Take U112C U143G: the self-cleavage was found to be 1.81.
For the variant C111U G137A, the self-cleavage worked out at 1.73.
For U119C A129U, the self-cleavage came out at 1.82.
For the variant U119A G125U, the self-cleavage was found to be 1.07.
As for C113A U134C, the self-cleavage worked out at 0.33.
On to U115G A141G, for which the self-cleavage came to 1.25.
Turning to G114A G122U, the self-cleavage amounted to 1.5.
The value for U115C A136U was 1.99; that for A117C U143A was 1.38.
With A117C A129U, the self-cleavage worked out at 1.
The value for U115G A138G was 2.15; that for A117U G126C was 1.47; that for U112A A138U was 2.19.
As to U112A A138G, the self-cleavage turned out to be 1.57.
U109G C145A: the self-cleavage was 0.34.
Regarding C111U U115C, the self-cleavage was found to be 1.55.
For C110A, the self-cleavage came out at 1.35.
The value for C110U was 1.51; that for C110G was 1.04; that for U119C A142G was 1.33.
In the case of U119C A142U, the self-cleavage amounted to 1.95.
The value for A117G U143A was 0.83.
For the variant A117G U143C, the self-cleavage worked out at 1.45.
With U119C A140G, the self-cleavage worked out at 1.88.
As for U112C C128U, the self-cleavage was 1.35.
Take G114A U132A: the self-cleavage worked out at 1.64.
U119G U143A: the self-cleavage was determined as 0.95.
Regarding C118G, the self-cleavage worked out at 1.27.
The value for C118U was 1.32.
With C118A, the self-cleavage came out at 1.11.
As to A117C A142G, the self-cleavage was determined as 1.8.
With A117C U134A, the self-cleavage is 1.53.
The value for A117G was 1.49; that for A117U was 1.46; that for A117C was 1.75.
The value for U109G U119C was 0.49; that for U119C A136G was 1.98; that for U119C A136U was 1.87.
For the variant U115C U119C, the self-cleavage is 2.04.
The value for A117G G137A was 1.66; that for G114A A121G was 1.32; that for C113U A141G was 0.94.
The value for C113U A121G was 0.68; that for C113U A136U was 1.75.
The value for U112G C116A was 1.57.
Turning to U115A G122C, the self-cleavage came out at 1.09.
For U115C C145G, the self-cleavage amounted to 1.64.
Consider U119G A141G, for which the self-cleavage came to 1.57.
Take A117C G144A: the self-cleavage is 1.79.
Take U115G U119A: the self-cleavage worked out at 1.36.
With U109G A121G, the self-cleavage was determined as 0.
On to C110U G127A, for which the self-cleavage worked out at 1.35.
The value for C120U A124G was 1.26.
As to C113A A136G, the self-cleavage was determined as 0.91.
Consider C116G U134C, for which the self-cleavage was 0.99.
Regarding U112A A136G, the self-cleavage was 1.71.
Consider U112C G139A, for which the self-cleavage was 1.36.
In the case of C110U A124G, the self-cleavage amounted to 0.82.
In the case of U112A U132A, the self-cleavage was found to be 1.69.
Turning to C116U A141G, the self-cleavage was determined as 1.42.
Turning to A117U U134C, the self-cleavage came to 1.52.
In the case of A117U U134A, the self-cleavage turned out to be 1.54.
G114U A141G: the self-cleavage was found to be 1.86.
With G114A U134C, the self-cleavage stood at 1.13.
Turning to C116U G125C, the self-cleavage stood at 1.54.
As to A121C G127A, the self-cleavage turned out to be 1.8.
Consider U115A, for which the self-cleavage is 1.36.
For U115G, the self-cleavage came out at 1.5.
As for U115C, the self-cleavage was found to be 1.58.
Regarding U109C U134A, the self-cleavage was 0.22.
For C113U U130C, the self-cleavage was 1.77.
On to U119C A138G, for which the self-cleavage came out at 1.84.
As to U112C A142G, the self-cleavage was 1.43.
For C110U U112A, the self-cleavage is 1.4.
Take U112C U132G: the self-cleavage was determined as 1.53.
For the variant A117G C145U, the self-cleavage amounted to 1.33.
For A117C A124G, the self-cleavage was 1.7.
On to A117C A124U, for which the self-cleavage was determined as 1.14.
Consider U112C U130A, for which the self-cleavage was 1.59.
Consider C111A, for which the self-cleavage was determined as 1.25.
Turning to C111U, the self-cleavage amounted to 1.38.
Regarding G114A A138G, the self-cleavage worked out at 1.47.
Take U119A A142G: the self-cleavage is 1.48.
As for U119C A124G, the self-cleavage was found to be 1.62.
Take U119C A124U: the self-cleavage came to 1.58.
Consider U112C U134C, for which the self-cleavage turned out to be 1.23.
The value for U112C U134A was 0.61; that for C113U U119A was 0.82; that for U109C U132A was 1.14.
On to U109C U132C, for which the self-cleavage stood at 1.03.
For the variant U112G A142G, the self-cleavage came out at 1.27.
Consider C111U A121U, for which the self-cleavage came out at 1.28.
Regarding U115G G125U, the self-cleavage stood at 0.54.
The value for C116U U134C was 1.11; that for U112A was 1.43.
On to U112G, for which the self-cleavage was 1.28.
U112C: the self-cleavage was found to be 1.36.
In the case of U115C A138G, the self-cleavage turned out to be 1.79.
The value for U112C G126A was 1.64; that for U115C U130G was 0.66; that for U115G A129G was 1.16.
The value for C111U U130C was 1.75.
On to U115A A124U, for which the self-cleavage stood at 1.79.
For the variant U115G C145U, the self-cleavage stood at 1.1.
Turning to A117C U119G, the self-cleavage stood at 2.43.
As to U115A A129U, the self-cleavage turned out to be 1.04.
For the variant U115A A129G, the self-cleavage was determined as 1.9.
With C116A U132A, the self-cleavage worked out at 0.67.
The value for U115A U132G was 1.84; that for U115A U132C was 1.88; that for U115A U132A was 1.03.
The value for C116A U119C was 1.27; that for U115A A141G was 1.5; that for C120U A129G was 1.84.
On to C110A A138G, for which the self-cleavage amounted to 0.95.
Take A117U A129G: the self-cleavage is 1.69.
As to A117U U119C, the self-cleavage was 1.73.
The value for U119C G125U was 2.39.
With A117U A142G, the self-cleavage worked out at 1.43.
With U115A G137A, the self-cleavage stood at 1.81.
The value for C116A A121U was 1.21; that for C111U A141G was 0.45.
In the case of C118U C131U, the self-cleavage came to 1.66.
With U112G A117U, the self-cleavage stood at 1.92.
As for G114A U115C, the self-cleavage stood at 1.58.
Consider A117U G135U, for which the self-cleavage stood at 1.68.
Regarding A117U G135A, the self-cleavage turned out to be 1.79.
The value for G114A G127A was 1.74; that for G114A G127C was 1.34; that for U115C A124C was 2.09.
Consider A117U U132C, for which the self-cleavage came out at 1.37.
For A117U U132G, the self-cleavage was found to be 1.99.
On to A117G C118U, for which the self-cleavage is 1.44.
For the variant U119G A138G, the self-cleavage was 2.33.
Take U112C A138U: the self-cleavage stood at 1.23.
For U119C A141G, the self-cleavage came out at 1.87.
As to A121C, the self-cleavage is 1.51.
Consider C110G A129G, for which the self-cleavage was 1.36.
With U115C A117G, the self-cleavage is 1.4.
On to G114A G125U, for which the self-cleavage was determined as 1.49.
Turning to U119A G122C, the self-cleavage is 1.65.
Turning to A117C U130C, the self-cleavage is 2.3.
As for C118U A138U, the self-cleavage was 0.2.
As to C118U A138G, the self-cleavage came out at 1.18.
In the case of A117G U134A, the self-cleavage turned out to be 1.37.
As for C120U A141G, the self-cleavage is 1.32.
On to C113U A129G, for which the self-cleavage turned out to be 1.34.
Turning to C113U A129U, the self-cleavage was determined as 1.86.
As to U115C C131A, the self-cleavage came to 0.47.
Consider A117G U132C, for which the self-cleavage was 1.8.
The value for A117G U132A was 0.59.
Regarding C116U A138U, the self-cleavage came out at 1.41.
On to C113G U119A, for which the self-cleavage stood at 1.38.
As for C116U A121G, the self-cleavage was 1.57.
As for A117G A140G, the self-cleavage turned out to be 1.48.
For the variant U119C U143C, the self-cleavage worked out at 1.49.
Consider C116A U143C, for which the self-cleavage stood at 0.71.

(Values after the RNAGym collection of RNA variant scans (doi:10.7554/elife.90254).)
